# From patent publication US20030208060A1
# Tests used:
# [1] = target: T1, apoE- and lipoprotein lipase-independent TGRLP receptor (apoB48R) on the surface of THP-1 monocyte-macrophages (human) (UniProt Q0VD83); experiment: specific binding of the 125I-lipoprotein to THP-1 macrophages, 4 °C
# T1 sequence: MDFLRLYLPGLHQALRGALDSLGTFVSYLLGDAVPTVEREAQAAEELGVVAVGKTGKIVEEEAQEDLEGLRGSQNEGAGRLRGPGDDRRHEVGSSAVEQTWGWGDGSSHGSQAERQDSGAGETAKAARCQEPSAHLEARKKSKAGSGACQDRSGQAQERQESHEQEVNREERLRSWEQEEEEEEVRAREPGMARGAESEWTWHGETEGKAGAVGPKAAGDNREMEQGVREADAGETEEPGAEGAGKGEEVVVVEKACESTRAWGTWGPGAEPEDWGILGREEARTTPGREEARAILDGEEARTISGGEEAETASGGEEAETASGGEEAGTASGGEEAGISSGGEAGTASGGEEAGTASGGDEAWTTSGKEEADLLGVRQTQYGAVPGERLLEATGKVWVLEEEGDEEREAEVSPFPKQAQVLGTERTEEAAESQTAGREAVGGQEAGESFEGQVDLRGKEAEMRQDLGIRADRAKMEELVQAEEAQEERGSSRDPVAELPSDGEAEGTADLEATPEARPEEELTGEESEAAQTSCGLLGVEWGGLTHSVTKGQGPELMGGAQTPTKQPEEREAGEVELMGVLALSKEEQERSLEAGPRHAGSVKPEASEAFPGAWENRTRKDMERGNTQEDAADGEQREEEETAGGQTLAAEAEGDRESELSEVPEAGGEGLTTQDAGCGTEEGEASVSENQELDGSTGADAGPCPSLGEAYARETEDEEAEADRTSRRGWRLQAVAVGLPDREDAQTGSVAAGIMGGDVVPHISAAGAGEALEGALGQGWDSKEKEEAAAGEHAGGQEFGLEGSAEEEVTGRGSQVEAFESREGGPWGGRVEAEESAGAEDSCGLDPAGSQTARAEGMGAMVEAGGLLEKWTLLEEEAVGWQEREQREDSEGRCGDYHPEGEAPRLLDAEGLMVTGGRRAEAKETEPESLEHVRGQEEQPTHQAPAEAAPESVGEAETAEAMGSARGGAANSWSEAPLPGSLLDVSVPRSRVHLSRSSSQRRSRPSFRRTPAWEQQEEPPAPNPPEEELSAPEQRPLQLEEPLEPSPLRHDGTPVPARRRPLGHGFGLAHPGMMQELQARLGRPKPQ
# [2] = target: T1, apoE- and lipoprotein lipase-independent TGRLP receptor (apoB48R) on the surface of THP-1 monocyte-macrophages (human); experiment: competition with 125I-tryp-VLDL1 for THP-1 macrophages, 4 °C, lactoferrin 100 µg/ml
# [3] = target: T1, apoE- and lipoprotein lipase-independent TGRLP receptor (apoB48R) on the surface of THP-1 monocyte-macrophages (human); experiment: competition with 125I-HTG-VLDL1 for THP-1 macrophages, 4 °C, lactoferrin 500 µg/ml
# [4] = target: hypertriglyceridemic very low density lipoprotein Sf100-400 (HTG-VLDL) (human) (UniProt P04114); experiment: competitive ligand blot: binding of biotinylated HTG-VLDL to MBP200 and MBP235, control IgG 400 µg/ml
# [5] = target: T1, apoE- and lipoprotein lipase-independent TGRLP receptor (apoB48R) on the surface of THP-1 monocyte-macrophages (human); experiment: competition with 125I-tryp-VLDL2 for THP-1 macrophages; set as 100% by definition
# [6] = target: T1, apoE- and lipoprotein lipase-independent TGRLP receptor (apoB48R) on the surface of THP-1 monocyte-macrophages (human); experiment: competition with 125I-HTG-VLDL1 for THP-1 macrophages; set as 100% by definition
# [7] = target: T1, apoE- and lipoprotein lipase-independent TGRLP receptor (apoB48R) on the surface of THP-1 monocyte-macrophages (human); experiment: competition with 125I-tryp-VLDL1 for THP-1 macrophages; set as 100% by definition
# [8] = target: T1, apoE- and lipoprotein lipase-independent TGRLP receptor (apoB48R) on the surface of THP-1 monocyte-macrophages (human); experiment: binding of 125I-HTG-VLDL at 5 µg/ml to THP-1 macrophages, 4 °C
# [9] = target: LDL receptor of cultured human skin fibroblasts (upregulated) (human) (UniProt P01130); experiment: binding of 125I-HTG-VLDL at 5 µg/ml to fibroblasts with induced LDL receptor, 4 °C
# [10] = target: MBP235 (membrane binding protein of ~235 kDa: MBP200 plus noncovalently bound subunit(s) of ~35 kDa) (human); experiment: quantitative ligand blot, Scatchard; conditions: scale: ng apo very low density lipoprotein/mg cell protein
# [11] = target: MBP200 (membrane binding protein of ~200 kDa; human monocyte-macrophage apoB48 receptor, apoB48R) (human) (UniProt Q0VD83); experiment: quantitative ligand blot, Scatchard; conditions: scale: ng apo very low density lipoprotein/mg cell protein
# [12] = target: MBP200R (reduced, ligand-binding form generated from MBP200 and MBP235 by 2-mercaptoethanol) (human) (UniProt Q0VD83); experiment: quantitative ligand blot after reduction, Scatchard; design: Bmax: unit not given here
# lactoferrin, sequence (P02788 20-710): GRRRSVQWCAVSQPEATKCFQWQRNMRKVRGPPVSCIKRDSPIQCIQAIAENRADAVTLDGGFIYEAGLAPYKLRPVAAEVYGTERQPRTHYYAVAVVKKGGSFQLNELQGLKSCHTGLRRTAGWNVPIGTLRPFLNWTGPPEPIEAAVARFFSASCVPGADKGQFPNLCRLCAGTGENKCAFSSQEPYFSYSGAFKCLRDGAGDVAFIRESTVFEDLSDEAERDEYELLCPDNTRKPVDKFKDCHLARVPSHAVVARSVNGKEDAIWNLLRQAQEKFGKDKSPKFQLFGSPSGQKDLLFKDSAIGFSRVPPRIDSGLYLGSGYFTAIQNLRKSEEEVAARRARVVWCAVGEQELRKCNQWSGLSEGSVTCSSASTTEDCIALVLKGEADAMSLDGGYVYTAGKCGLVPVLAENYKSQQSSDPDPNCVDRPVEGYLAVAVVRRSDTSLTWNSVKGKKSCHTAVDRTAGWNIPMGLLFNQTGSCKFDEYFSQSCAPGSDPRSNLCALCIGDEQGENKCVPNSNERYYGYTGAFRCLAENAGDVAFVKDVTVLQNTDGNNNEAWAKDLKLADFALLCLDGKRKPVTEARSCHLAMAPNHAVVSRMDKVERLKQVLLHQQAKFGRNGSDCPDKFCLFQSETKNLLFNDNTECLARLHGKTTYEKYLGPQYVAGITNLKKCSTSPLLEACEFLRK
# LDL receptor of cultured human skin fibroblasts (upregulated) (human), sequence (P01130 22-860): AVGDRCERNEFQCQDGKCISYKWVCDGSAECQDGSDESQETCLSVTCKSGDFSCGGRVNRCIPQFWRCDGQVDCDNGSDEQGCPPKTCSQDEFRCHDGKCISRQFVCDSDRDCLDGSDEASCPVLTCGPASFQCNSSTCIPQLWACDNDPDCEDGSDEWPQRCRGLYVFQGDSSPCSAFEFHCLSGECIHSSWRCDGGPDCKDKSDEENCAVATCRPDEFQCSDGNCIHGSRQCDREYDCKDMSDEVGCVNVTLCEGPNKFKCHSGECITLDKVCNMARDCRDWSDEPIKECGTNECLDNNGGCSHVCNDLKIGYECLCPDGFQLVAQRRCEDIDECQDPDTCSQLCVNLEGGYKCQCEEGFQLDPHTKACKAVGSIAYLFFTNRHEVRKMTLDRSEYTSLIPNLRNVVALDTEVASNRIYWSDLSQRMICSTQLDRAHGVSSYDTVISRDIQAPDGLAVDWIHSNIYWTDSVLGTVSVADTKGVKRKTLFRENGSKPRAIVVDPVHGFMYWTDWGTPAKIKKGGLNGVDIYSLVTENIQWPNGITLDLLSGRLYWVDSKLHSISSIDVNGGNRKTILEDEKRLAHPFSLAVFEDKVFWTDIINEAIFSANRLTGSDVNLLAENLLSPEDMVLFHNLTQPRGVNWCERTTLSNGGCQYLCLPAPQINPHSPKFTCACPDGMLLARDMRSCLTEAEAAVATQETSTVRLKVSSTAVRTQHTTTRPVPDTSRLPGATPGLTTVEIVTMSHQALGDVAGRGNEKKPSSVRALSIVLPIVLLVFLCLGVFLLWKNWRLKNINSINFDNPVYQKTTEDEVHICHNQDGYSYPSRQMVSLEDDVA
substance,measurement,setting,value
trypsinized VLDL2 (tryp-VLDL2) (from UniProt P04114 28-4563),specific binding (0% inhibition) (fmol/mg cell protein),[1],20
lactoferrin,Percent Inhibition,[2],4%
same,Percent Inhibition,[3],5%
"trypsinized VLDL Sf100-400, devoid of apoE (tryp-VLDL) (from UniProt P04114 28-4563)",specific binding (0% inhibition) (fmol/mg cell protein),[1],140
preimmune IgG (rabbit 1325) (antibody),percent of binding blocked,[4],25%
"Unlabeled VLDL (20x), P04114 28-4563",Percent Inhibition,[5],100%
same,Percent Inhibition,[6],100%
same,Percent Inhibition,[7],100%
hypertriglyceridemic very low density lipoprotein Sf100-400 (HTG-VLDL) (from UniProt P04114 28-4563; P04114 28-2179; P02649 19-317; P02656 21-99),specific binding activity (ng/mg THP-1 cell protein),[8],24
same,specific binding activity (ng/mg fibroblast cell protein),[9],237
same,Bmax,[10],66
same,Bmax,[11],96
same,Bmax,[12],160
same,Kd,[12],1.4 µg/mL
